Experimental data published in article PMC11381347.

Biological target: N-terminal SmBiT-tagged SETD1A FLOS domain fragment (Sm-FO3)
Experiment: split-NanoLuciferase-complementation assay with non-tagged competitor
Conditions: Sm-FO3 + N200-Lg with non-tagged competitor construct; parent: est. 3.6; read off a plot

response: 7.6 RLU, x10^5
Substance: non-tagged BOD1L Shg1 fragment N200 (competitor) (from UniProt Q8NFC6) W104A
